Laboratory results from patent publication US20210238276A1 (INTEGRAL MOLECULAR, published 2021).

T1: hsGLUT4 Y309I (human, UniProt P14672 1-509)
T1 construct: The running text prints 'Y3091'; also called Y3091 (as printed in the running text); outward-open lock mutant
T1 sequence: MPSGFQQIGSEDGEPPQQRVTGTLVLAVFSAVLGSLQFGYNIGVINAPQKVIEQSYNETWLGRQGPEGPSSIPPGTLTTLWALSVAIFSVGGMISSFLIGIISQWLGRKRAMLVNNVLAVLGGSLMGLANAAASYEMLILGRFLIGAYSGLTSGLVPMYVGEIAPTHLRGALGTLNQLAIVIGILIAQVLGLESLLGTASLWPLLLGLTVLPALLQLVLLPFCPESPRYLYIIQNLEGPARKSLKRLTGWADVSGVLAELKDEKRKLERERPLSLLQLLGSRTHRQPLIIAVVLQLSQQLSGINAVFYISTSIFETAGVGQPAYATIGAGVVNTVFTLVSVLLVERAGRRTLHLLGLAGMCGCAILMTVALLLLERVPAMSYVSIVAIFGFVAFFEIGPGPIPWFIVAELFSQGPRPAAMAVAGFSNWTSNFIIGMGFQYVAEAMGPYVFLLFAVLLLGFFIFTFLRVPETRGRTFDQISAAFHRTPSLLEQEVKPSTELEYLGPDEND

T2: hsGLUT4 E345Q (human, UniProt P14672 1-509)
T2 construct: also called inward-open lock mutant
T2 sequence: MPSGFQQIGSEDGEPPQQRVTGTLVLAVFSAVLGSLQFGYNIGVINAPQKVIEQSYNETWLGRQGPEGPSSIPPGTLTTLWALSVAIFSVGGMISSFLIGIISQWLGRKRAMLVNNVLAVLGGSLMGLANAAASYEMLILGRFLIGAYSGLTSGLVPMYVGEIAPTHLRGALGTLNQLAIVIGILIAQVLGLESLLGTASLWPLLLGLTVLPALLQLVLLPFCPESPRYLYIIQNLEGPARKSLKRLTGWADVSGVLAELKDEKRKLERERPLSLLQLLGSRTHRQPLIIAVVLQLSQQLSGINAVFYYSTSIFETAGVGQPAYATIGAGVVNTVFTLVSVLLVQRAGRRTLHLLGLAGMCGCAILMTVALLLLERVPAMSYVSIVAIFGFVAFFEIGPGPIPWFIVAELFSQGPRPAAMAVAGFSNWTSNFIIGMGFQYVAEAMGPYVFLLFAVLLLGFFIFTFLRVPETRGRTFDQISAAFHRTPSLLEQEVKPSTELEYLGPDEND

T3: human GLUT2 (hsGLUT2) (human, UniProt P11168 1-524)
T3 construct: whole, on cells
T3 sequence (looked up): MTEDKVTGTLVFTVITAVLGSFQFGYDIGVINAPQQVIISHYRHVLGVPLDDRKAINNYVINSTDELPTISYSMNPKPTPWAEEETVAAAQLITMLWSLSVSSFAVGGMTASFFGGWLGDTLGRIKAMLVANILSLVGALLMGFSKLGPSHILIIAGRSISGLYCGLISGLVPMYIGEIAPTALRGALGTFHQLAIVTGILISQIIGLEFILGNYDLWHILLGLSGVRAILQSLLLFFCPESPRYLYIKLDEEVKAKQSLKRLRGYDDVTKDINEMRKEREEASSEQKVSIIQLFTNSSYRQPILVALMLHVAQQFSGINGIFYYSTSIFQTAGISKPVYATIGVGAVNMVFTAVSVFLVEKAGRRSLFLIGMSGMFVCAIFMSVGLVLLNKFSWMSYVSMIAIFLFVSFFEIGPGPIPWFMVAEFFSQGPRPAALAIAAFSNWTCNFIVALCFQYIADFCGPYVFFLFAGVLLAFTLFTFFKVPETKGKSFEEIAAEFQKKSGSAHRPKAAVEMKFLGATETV

T4: human GLUT1 (hsGLUT1) (human, UniProt P11166 1-492)
T4 construct: whole, on cells
T4 sequence (looked up): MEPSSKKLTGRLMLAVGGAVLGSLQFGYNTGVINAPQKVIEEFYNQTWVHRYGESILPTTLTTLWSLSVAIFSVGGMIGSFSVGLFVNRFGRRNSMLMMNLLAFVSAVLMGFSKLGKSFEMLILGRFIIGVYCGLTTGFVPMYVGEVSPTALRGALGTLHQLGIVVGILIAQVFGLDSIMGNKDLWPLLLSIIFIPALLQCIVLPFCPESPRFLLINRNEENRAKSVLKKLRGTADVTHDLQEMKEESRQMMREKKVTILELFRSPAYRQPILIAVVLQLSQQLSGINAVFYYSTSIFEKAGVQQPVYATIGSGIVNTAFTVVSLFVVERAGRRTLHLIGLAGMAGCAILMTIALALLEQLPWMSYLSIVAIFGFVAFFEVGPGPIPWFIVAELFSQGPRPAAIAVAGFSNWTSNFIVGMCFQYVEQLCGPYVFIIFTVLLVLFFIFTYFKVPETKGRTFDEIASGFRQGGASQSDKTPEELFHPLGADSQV


Tests used:
hsGLUT4 Y309I = biological target: T1, hsGLUT4 Y309I; assay: flow cytometry, mutant in HEK-293T
hsGLUT4 E345Q = biological target: T2, hsGLUT4 E345Q; assay: flow cytometry, mutant in HEK-293T
human GLUT2 (hsGLUT2) = biological target: T3, human GLUT2 (hsGLUT2); assay: flow cytometry, transfected HEK-293T
Method: (§1) HEK-293T cells were transfected by CaPO₄ with plasmids in 6-well culture plates (Falcon) at 750,000 cells/well. At 48 hours post transfection, cells were stained with anti-V5 and anti-GLUT4 MAbs (purified scFv, 2 μg/ml) followed by biotinylated goat anti-mouse or human antibody (1:500) and streptavidin-PerCP (1:500). Fluorescence was detected using an Intellicyt high-throughput flow cytometer (HTFC; Intellicyt, Albuquerque, N. Mex.). For cell permeabilization, cells were treated with saponin at 0.1% in PBS for 20 minutes. To discriminate intact (live) and permeabilized (dead) cells without the use of detergent, propidium iodide (PI) was added to HEK-293T cells at 1 ug/ml just prior to flow cytometry. Where indicated, cytochalasin B (Sigma) was used at a final concentration of 10 uM and phloretin (Sigma) was used at a final concentration of 100 uM, each added in 10% NGS for 30 minutes prior to antibody staining as well as included with the primary antibody.

human GLUT1 (hsGLUT1) = biological target: T4, human GLUT1 (hsGLUT1); assay: flow cytometry, transfected HEK-293T
Method: as §1

Molecule	% of binding to wild type GLUT4 (hsGLUT4 E345Q) [%]	% of binding to wild type GLUT4 (hsGLUT4 Y309I) [%]	binding result (human GLUT2 (hsGLUT2))	binding result (human GLUT1 (hsGLUT1))
AB111 (Fc fusion, Bivalent scFv-Fc; also called MAb AB111; not shown: Fc fragment of human IgG1, cloned in frame with the scFv) scFv: ALTQPSSVSANPGETVKITCSGSGSWYGWFQQKSPGSAPVTVIYSNDKRPSDIPSRFSGSKSGSTSTLTITGVQVEDEAVYYCGNWDIFGAGTTLTVLGQSSRSSGGGGSSGGGGSAVTLDESGGGLQTPGGALSLVCKASGFTFSSHGMGWVRQAPGKGLEWVASISTGRYTFYAPAVKGRATISRDNGQSTVRLQLNNLRAEDTATYYCTKCAGLNGCGGGEIDAWGHGTEVIVSS	125	154	no binding (tested: 2 µg/ml)	no binding (tested: 2 µg/ml)
AB101 (scFv, Chicken-derived clone used as a control; the four lead clones were tested as scFv-human IgG1 Fc; also called MAb AB101) scFv: ALTQPSSVSANPGETVKITCSGSSNSYGWYQQKSPGSAPVTVIYYNDKRPSDIPSRFSGSKSDSTHTLTITGVRAEDEAVYFCGSYDSTYVGIFGAGTTLTVLGQSSRSSGGGGSSGGGGSAVTLDESGGGLQTPGGTLSLVCKASGFTFSSNAMGWVRQAPGKGLEWVAGISSDGRYTKYGSAVKGRATISRDNGQSTVRLQLNNLRAEDTGTYFCAKAFGNNYRRIYAGQIDAWGHGTEVIVSS	96	110	–	–
AB108 (Fc fusion, Bivalent scFv-Fc; also called MAb AB108; not shown: Fc fragment of human IgG1, cloned in frame with the scFv) scFv: ALTQPSSVSANLGGTVKITCSGSSGSYGWYQQKAPGSAPVTLIYRNDKRPSDIPSRFSGSESGSTGTLTITGVQAEDEAVYFCGGYDSSAGYAAFGAGTTLTVLGQSSRSSGGGGSSGGGGSAVTLDESGGGLQTPGGALSLVCKASGFTFSSHGMGWVRQAPGKGLEWVGSISTGRYTFYAPAVKGRATISRDNGQSTLRLQLNNLRAEDTGTYYCTKCAGLNGCGGGEIDAWGHGTEVIVSS	78	67	no binding (tested: 2 µg/ml)	no binding (tested: 2 µg/ml)

More lines, main results first:

% of binding to wild type GLUT4 (hsGLUT4 E345Q) [%]	Molecule	% of binding to wild type GLUT4 (hsGLUT4 Y309I) [%]	binding result (human GLUT2 (hsGLUT2))	binding result (human GLUT1 (hsGLUT1))
91	1F8 (antibody)	101	–	–
16	AB105 (Fc fusion, Bivalent scFv-Fc; also called MAb AB105; not shown: Fc fragment of human IgG1, cloned in frame with the scFv) scFv: ALTQPSSVSANPGETVEITCSGDSSYYGWYQQKSPGSAPVTVIYANTNRPSDIPSRFSGSASGSTATLTITGVQAEDEAVYYCGSADSTYAGIFGAGTTLTVLGQSSRSSGGGGSSGGGGSAVTLDESGGGLQTPGGALSLICKASGFTFSSYTMNWVRQAPGKGLEWVGVISNSGRTTNYGAAVQGRATISRDNGQSTVRLQLNNLRAEDTGTYYCAKSSASASCAWWAGRSYPCSANRIDAWGHGTEVIVSS	–	no binding (tested: 2 µg/ml)	no binding (tested: 2 µg/ml)
